Target: CD20, on SUP-B15 CD20+ cells (UniProt P11836)
Experiment: cell-based or functional assay

UniProt P11836, sequence (P11836 whole entry): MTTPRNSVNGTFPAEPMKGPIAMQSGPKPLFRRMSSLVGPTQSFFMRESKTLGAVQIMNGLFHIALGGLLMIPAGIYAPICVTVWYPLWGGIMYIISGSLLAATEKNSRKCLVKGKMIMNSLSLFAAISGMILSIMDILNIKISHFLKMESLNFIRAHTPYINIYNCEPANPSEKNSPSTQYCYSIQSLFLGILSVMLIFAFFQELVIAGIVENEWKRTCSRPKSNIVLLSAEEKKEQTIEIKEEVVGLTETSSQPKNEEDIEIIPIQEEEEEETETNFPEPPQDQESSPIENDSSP

rituximab (antibody)
ADCC by polyclonal BCMA.CAR t-haNK cells (quadracistronic): 60% | ADCC by polyclonal BCMA.CAR t-haNK cells (tricistronic): 55%
